Legend:
Type in all cases: cell-based
[1] = tested on: vancomycin-resistant enterococci (ATCC 700802); assay: inhibition / killing of vancomycin-resistant enterococci; settings: FIG. 7 A
[2] = tested on: methicillin-resistant Staphylococcus aureus (ATCC BAA-42)
[3] = tested on: multi-drug resistant Pseudomonas aeruginosa (clinical isolated strain 13578 in West China Hospital); assay: inhibition / killing of multi-drug resistant Pseudomonas aeruginosa; settings: FIG. 7 C

B1: wild-type colicin Ia: wild-type colicin Ia, bacteriocin secreted by Escherichia coli that forms ion channels (protein, UniProt P06716 1-626, looked up)
Colicin-Ia: MSDPVRITNPGAESLGYDSDGHEIMAVDIYVNPPRVDVFHGTPPAWSSFGNKTIWGGNEWVDDSPTRSDIEKRDKEITAYKNTLSAQQKENENKRTEAGKRLSAAIAAREKDENTLKTLRAGNADAADITRQEFRLLQAELREYGFRTEIAGYDALRLHTESRMLFADADSLRISPREARSLIEQAEKRQKDAQNADKKAADMLAEYERRKGILDTRLSELEKNGGAALAVLDAQQARLLGQQTRNDRAISEARNKLSSVTESLNTARNALTRAEQQLTQQKNTPDGKTIVSPEKFPGRSSTNHSIVVSGDPRFAGTIKITTSAVIDNRANLNYLLSHSGLDYKRNILNDRNPVVTEDVEGDKKIYNAEVAEWDKLRQRLLDARNKITSAESAVNSARNNLSARTNEQKHANDALNALLKEKENIRNQLSGINQKIAEEKRKQDELKATKDAINFTTEFLKSVSEKYGAKAEQLAREMAGQAKGKKIRNVEEALKTYEKYRADINKKINAKDRAAIAAALESVKLSDISSNLNRFSRGLGYAGKFTSLADWITEFGKAVRTENWRPLFVKTETIIAGNAATALVALVFSILTGSALGIIGYGLLMAVTGALIDESLVEKANKFWGI
With B1 the “minimum inhibitory concentration (MIC)” value [1] was 0.91 nmol, the “minimum inhibitory concentration (MIC)” value [2] was 0.23 nmol and the “minimum inhibitory concentration (MIC)” value [3] was 0.91 nmol.

Reference: patent US10071358B2, “Antibiotic preparation method and platform system based on same” (priority 2011, dated 2018)
